# Measurements reported in article PMC7997005, “Dynamic interplay between the co-opted Fis1 mitochondrial fission protein and membrane contact site proteins in supporting tombusvirus replication” (PLoS Pathogens, 2021).
# B1: yeast His6-Sac1p (enzyme, S. cerevisiae, UniProt P32368 1-623, looked up)
# chain: MTGPIVYVQNADGIFFKLAEGKGTNDAVIHLANQDQGVRVLGAEEFPVQGEVVKIASLMGFIKLKLNRYAIIANTVEETGRFNGHVFYRVLQHSIVSTKFNSRIDSEEAEYIKLLELHLKNSTFYFSYTYDLTNSLQRNEKVGPAASWKTADERFFWNHYLTEDLRNFAHQDPRIDSFIQPVIYGYAKTVDAVLNATPIVLGLITRRSIFRAGTRYFRRGVDKDGNVGNFNETEQILLAENPESEKIHVFSFLQTRGSVPIYWAEINNLKYKPNLVLGENSLDATKKHFDQQKELYGDNYLVNLVNQKGHELPVKEGYESVVHALNDPKIHYVYFDFHHECRKMQWHRVKLLIDHLEKLGLSNEDFFHKVIDSNGNTVEIVNEQHSVVRTNCMDCLDRTNVVQSVLAQWVLQKEFESADVVATGSTWEDNAPLLTSYQNLWADNADAVSVAYSGTGALKTDFTRTGKRTRLGAFNDFLNSASRYYQNNWTDGPRQDSYDLFLGGFRPHTASIKSPFPDRRPVYIQLIPMIICAALTVLGATIFFPKDRFTSSKNLLYFAGASIVLALSTKFMFKNGIQFVNWPKLVDVGFLVVHQTHDKEQQFKGLKYAQSPKFSKPDPLKRD
# notes: Sac1p PI4P phosphatase, S. cerevisiae; source: yeast, expressed from a plasmid, in detergent-solubilized membrane fraction
# B2: yeast His6-Fis1p (natural protein, S. cerevisiae, UniProt P40515 1-155, looked up)
# chain: MTKVDFWPTLKDAYEPLYPQQLEILRQQVVSEGGPTATIQSRFNYAWGLIKSTDVNDERLGVKILTDIYKEAESRRRECLYYLTIGCYKLGEYSMAKRYVDTLFEHERNNKQVGALKSMVEDKIQKETLKGVVVAGGVLAGAVAVASFFLRNKRR
# notes: Fis1p mitochondrial fission 1 protein, S. cerevisiae; also called HisScFis1; source: yeast, expressed from a plasmid, in detergent-solubilized membrane fraction
# B3: yeast His6-Osh6p (natural protein, S. cerevisiae, UniProt Q02201 1-448, looked up)
# chain: MGSKKLTVGSDSHRLSKSSFSSNKSSHSATKDQPIDTDDIDEDDESGHNIILNIISQLRPGCDLTRITLPTFILEKKSMLERVTNQLQFPEFLLQAHSEKDPLKRFLYVMKWYLAGWHIAPKAVKKPLNPVLGEYFTAYWDLPNKQQAYYISEQTSHHPPECAYFYMIPESSIRVDGVVIPKSRFLGNSSAAMMDGSTVLQFLDIKDGNGKPEKYVLTQPNVYVRGILFGKMRIELGDHMIIKSPNFQADIEFKTKGYVFGTYDAIEGTVKDYDGNAYYEISGKWNDVMYLKDLKQPRSSPKVFLDTHKESPLRPKVRPLSEQGEYESRKLWKKVTDALAVRNHPVATEEKFQIEDHQRQLAKKRIEDGVEFHPKLFRRSKPGEDLDYCIYKNIPVDEDPEKQIRSILQIAPILPGQQFTDKFFIPAFEKIKSQKKMIENEKQNPAKQ
# notes: source: yeast, expressed from a plasmid, in detergent-solubilized membrane fraction
# Target: T1, TBSV Flag-p33 replication protein (tomato bushy stunt virus (TBSV), UniProt P15962 1-296)
# T1 construct: TBSV p33 replication protein; co-expressed and co-purified with Flag-p92pol; source: yeast, expressed from a plasmid, in detergent-solubilized membrane fraction
# T1 sequence: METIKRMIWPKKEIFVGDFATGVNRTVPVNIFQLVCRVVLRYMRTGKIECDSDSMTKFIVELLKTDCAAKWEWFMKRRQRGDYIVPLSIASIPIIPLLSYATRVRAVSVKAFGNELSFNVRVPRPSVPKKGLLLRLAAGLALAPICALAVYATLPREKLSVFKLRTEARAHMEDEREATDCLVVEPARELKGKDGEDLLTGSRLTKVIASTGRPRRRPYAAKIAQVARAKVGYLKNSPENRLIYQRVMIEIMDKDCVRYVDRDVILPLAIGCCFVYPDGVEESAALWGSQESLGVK
# Assay: co-IP; Flag-affinity purification of Flag-tagged replication proteins (TBSV Flag-p33 + Flag-p92pol or CIRV Flag-p36 + Flag-p95pol) from the detergent-solubilized membrane fraction of yeast; samples cross-linked with formaldehyde; co-purified His6-tagged proteins detected with anti-His antibody; WT, fis1Δ, Fis1p- or Dnm1-ZZ-over-expressing yeast; cycloheximide time course
# Settings: partners not purified
binder,measurement,value
B1,"fold of co-purified Sac1p, Fis1p-over-expressing against WT yeast",> 2 fold
B2,"fold reduction of co-purified Fis1p when Dnm1p is co-expressed, against yeast without Dnm1p over-expression",~8 fold
B3,"fold of co-purified Osh6p, Fis1p-over-expressing against WT yeast",3.5 fold more
same,"fold of co-purified Osh6p, fis1Δ against WT yeast",~4 fold less
